From PMC9482650, “Quantitative fragmentomics allow affinity mapping of interactomes” (Nature Communications, 2022)

Key:
Test in all cases: holdup assay
Set-up in all cases: key: below the threshold = too weak to quantify, mostly under pKd 3.1 to 4
CASK, O14936 = target: CASK, O14936
DFNB31_1, Q9P202 = target: T1, DFNB31_1, Q9P202
T1 sequence (Q9P202 135-233, limits assumed, looked up): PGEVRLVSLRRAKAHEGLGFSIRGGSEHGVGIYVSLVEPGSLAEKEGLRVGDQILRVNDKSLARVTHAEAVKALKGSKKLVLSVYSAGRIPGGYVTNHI

DLG3_2, Q92796 = target: T2, DLG3_2, Q92796
T2 sequence (Q92796 221-321, limits assumed, looked up): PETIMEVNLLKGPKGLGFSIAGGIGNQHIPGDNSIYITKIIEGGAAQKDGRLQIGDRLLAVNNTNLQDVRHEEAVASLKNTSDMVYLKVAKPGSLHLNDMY

DLG4_3, P78352 = target: DLG4_3, P78352
DLG4_3, P78352, sequence (P78352 306-403): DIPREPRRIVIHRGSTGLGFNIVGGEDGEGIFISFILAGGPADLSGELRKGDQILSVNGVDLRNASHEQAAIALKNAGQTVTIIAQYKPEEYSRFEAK

DLG5_1, Q8TDM6 = target: DLG5_1, Q8TDM6
DLG5_1, Q8TDM6, sequence (Q8TDM6 617-713): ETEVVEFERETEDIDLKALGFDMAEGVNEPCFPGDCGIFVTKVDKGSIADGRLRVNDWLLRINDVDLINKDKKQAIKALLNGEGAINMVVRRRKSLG

FRMPD2_2, Q68DX3 = target: FRMPD2_2, Q68DX3
FRMPD2_2, Q68DX3, sequence (Q68DX3 944-1038): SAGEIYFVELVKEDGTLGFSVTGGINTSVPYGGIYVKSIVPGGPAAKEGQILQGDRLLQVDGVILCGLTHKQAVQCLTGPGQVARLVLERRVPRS

GOPC, Q9HD26 = settings: plain residues with an end cap or a label only (N-terminal biotin on a linker: ado-ado)
GORASP2, Q9H8Y8 = target: GORASP2, Q9H8Y8
GRIP2_5, Q9C0E4 = target: GRIP2_5, Q9C0E4
GRIP2_5, Q9C0E4, sequence (Q9C0E4 544-642): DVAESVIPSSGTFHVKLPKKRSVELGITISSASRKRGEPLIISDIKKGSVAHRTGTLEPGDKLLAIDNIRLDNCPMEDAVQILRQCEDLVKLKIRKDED

HTRA4, P83105 = target: T3, HTRA4, P83105
T3 sequence (P83105 378-476, limits assumed, looked up): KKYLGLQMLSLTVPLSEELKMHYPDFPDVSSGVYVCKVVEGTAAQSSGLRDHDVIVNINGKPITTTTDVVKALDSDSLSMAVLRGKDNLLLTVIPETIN

IL16_1, Q14005 = target: IL16_1, Q14005
IL16_1, Q14005, sequence (Q14005 210-306): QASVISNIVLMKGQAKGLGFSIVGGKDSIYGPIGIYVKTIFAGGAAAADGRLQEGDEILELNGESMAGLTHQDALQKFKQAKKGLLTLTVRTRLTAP

Inadl_8, Q8NI35 = target: Inadl_8, Q8NI35
Inadl_8, Q8NI35, sequence (Q8NI35 1425-1530): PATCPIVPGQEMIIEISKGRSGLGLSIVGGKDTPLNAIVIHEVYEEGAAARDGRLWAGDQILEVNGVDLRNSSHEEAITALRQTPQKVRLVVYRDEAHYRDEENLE

LIMK2, P53671 = target: LIMK2, P53671
LIMK2, P53671, sequence (P53671 143-248): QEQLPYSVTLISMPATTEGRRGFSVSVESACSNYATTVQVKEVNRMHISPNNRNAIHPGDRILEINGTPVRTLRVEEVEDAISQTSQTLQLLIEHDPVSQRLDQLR

LIN7B, Q9HAP6 = target: T4, LIN7B, Q9HAP6
T4 sequence (Q9HAP6 88-185, limits assumed, looked up): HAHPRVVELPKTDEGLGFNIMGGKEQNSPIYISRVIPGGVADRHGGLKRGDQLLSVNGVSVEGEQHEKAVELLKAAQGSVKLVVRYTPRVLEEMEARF

MPDZ_10, O75970 = target: T5, MPDZ_10, O75970
T5 sequence (O75970 1624-1722, limits assumed, looked up): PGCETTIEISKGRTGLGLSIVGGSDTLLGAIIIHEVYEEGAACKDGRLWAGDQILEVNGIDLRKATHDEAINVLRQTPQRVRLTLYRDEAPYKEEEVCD

NHERF3_1, Q5T2W1 = target: T6, NHERF3_1, Q5T2W1
T6 sequence (Q5T2W1 4-100, limits assumed, looked up): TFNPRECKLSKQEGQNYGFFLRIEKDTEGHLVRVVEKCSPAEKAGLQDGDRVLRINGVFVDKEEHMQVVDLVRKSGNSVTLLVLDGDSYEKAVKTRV

NOS1, P29475 = target: NOS1, P29475
NOS1, P29475, sequence (P29475 9-101): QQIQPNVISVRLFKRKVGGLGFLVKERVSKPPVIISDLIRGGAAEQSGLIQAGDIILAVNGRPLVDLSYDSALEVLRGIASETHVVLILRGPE

PARD3_3, Q8TEW0 = target: PARD3_3, Q8TEW0
PARD3_3, Q8TEW0, sequence (Q8TEW0 582-685): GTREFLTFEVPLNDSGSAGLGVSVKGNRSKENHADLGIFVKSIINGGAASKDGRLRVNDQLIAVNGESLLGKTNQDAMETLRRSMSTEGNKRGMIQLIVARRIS

PDLIM1, O00151 = target: PDLIM1, O00151
PDLIM1, O00151, sequence (O00151 1-87): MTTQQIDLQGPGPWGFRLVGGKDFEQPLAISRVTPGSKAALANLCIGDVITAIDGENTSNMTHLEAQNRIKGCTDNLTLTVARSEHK

RAPGEF6, Q8TEU7 = target: T7, RAPGEF6, Q8TEU7
T7 sequence (Q8TEU7 525-625, limits assumed, looked up): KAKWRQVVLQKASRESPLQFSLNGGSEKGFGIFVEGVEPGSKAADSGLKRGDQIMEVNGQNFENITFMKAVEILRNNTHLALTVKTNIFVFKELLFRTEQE

SCRIB_1, Q14160 = target: SCRIB_1, Q14160
SCRIB_1, Q14160, sequence (Q14160 718-814): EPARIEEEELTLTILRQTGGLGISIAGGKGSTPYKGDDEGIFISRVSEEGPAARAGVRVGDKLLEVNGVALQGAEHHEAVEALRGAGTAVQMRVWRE

SNTA1, Q13424 = target: T8, SNTA1, Q13424
T8 sequence (Q13424 82-180, limits assumed, looked up): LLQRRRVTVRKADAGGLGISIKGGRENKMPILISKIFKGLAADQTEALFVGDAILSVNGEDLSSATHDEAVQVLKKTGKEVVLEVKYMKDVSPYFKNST

SNTG1, Q9NSN8 = target: T9, SNTG1, Q9NSN8
T9 sequence (Q9NSN8 52-150, limits assumed, looked up): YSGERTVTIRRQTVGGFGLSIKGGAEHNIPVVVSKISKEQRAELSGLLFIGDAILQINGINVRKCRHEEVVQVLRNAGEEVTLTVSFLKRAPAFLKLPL

TIAM2, Q8IVF5 = target: T10, TIAM2, Q8IVF5
T10 sequence (Q8IVF5 885-986, limits assumed, looked up): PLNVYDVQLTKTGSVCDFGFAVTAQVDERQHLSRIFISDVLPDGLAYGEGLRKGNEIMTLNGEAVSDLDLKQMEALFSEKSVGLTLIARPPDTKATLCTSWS

IL16_4, Q14005 = settings: modified: phospho on T at position -2 from the C-terminal residue
IL16_4, Q14005, sequence (Q14005 1229-1329): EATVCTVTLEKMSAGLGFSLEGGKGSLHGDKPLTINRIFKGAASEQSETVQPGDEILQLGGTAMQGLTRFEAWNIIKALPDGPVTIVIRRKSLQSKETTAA

SNTG2, Q9NY99 = target: T11, SNTG2, Q9NY99
T11 sequence (Q9NY99 68-166, limits assumed, looked up): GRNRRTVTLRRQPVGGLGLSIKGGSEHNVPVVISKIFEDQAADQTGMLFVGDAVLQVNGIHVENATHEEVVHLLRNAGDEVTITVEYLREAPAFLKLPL

[1] = plain residues with an end cap or a label only (N-terminal biotin on a linker: ado-ado)
[2] = modified: phospho on T at position -2 from the C-terminal residue

CASK, O14936, sequence (O14936 487-570): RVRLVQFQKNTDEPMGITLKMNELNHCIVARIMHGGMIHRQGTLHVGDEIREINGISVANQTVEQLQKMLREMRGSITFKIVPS

VYPNAKVELV [PDLIM4_iso2, P50479;P50479-1]
pKd (CASK, O14936; [1]): below the threshold
pKd (DFNB31_1, Q9P202; [1]): below the threshold
pKd (DLG3_2, Q92796; [1]): below the threshold
pKd (DLG4_3, P78352; [1]): below the threshold
pKd (DLG5_1, Q8TDM6; [1]): below the threshold
pKd (FRMPD2_2, Q68DX3; [1]): below the threshold
pKd (GOPC, Q9HD26): below the threshold
pKd (GORASP2, Q9H8Y8; [1]): 4.87
pKd (GRIP2_5, Q9C0E4; [1]): below the threshold
pKd (HTRA4, P83105; [1]): 4.55
pKd (IL16_1, Q14005; [1]): below the threshold
pKd (Inadl_8, Q8NI35; [1]): below the threshold
pKd (LIMK2, P53671; [1]): below the threshold
pKd (LIN7B, Q9HAP6; [1]): below the threshold
pKd (MPDZ_10, O75970; [1]): below the threshold
pKd (NHERF3_1, Q5T2W1; [1]): below the threshold
pKd (NOS1, P29475; [1]): 4.05
pKd (PARD3_3, Q8TEW0; [1]): below the threshold
pKd (PDLIM1, O00151; [1]): below the threshold
pKd (RAPGEF6, Q8TEU7; [1]): below the threshold
pKd (SCRIB_1, Q14160; [1]): below the threshold
pKd (SNTA1, Q13424; [1]): below the threshold
pKd (SNTG1, Q9NSN8; [1]): below the threshold
pKd (TIAM2, Q8IVF5; [1]): below the threshold

RLQRRRETQV [HPV18-E6_-2P, P06463]
pKd (CASK, O14936; [2]): below the threshold
pKd (DFNB31_1, Q9P202; [2]): below the threshold
pKd (DLG3_2, Q92796; [2]): below the threshold
pKd (DLG4_3, P78352; [2]): 3.51
pKd (DLG5_1, Q8TDM6; [2]): below the threshold
pKd (FRMPD2_2, Q68DX3; [2]): below the threshold
pKd (GORASP2, Q9H8Y8; [2]): 4.13
pKd (GRIP2_5, Q9C0E4; [2]): below the threshold
pKd (HTRA4, P83105; [2]): below the threshold
pKd (IL16_1, Q14005; [2]): below the threshold
pKd (IL16_4, Q14005): below the threshold
pKd (Inadl_8, Q8NI35; [2]): below the threshold
pKd (LIMK2, P53671; [2]): below the threshold
pKd (LIN7B, Q9HAP6; [2]): below the threshold
pKd (MPDZ_10, O75970; [2]): below the threshold
pKd (NHERF3_1, Q5T2W1; [2]): below the threshold
pKd (NOS1, P29475; [2]): 3.75
pKd (PARD3_3, Q8TEW0; [2]): below the threshold
pKd (PDLIM1, O00151; [2]): below the threshold
pKd (RAPGEF6, Q8TEU7; [2]): below the threshold
pKd (SCRIB_1, Q14160; [2]): below the threshold
pKd (SNTA1, Q13424; [2]): below the threshold
pKd (SNTG1, Q9NSN8; [2]): below the threshold
pKd (SNTG2, Q9NY99; [2]): below the threshold
pKd (TIAM2, Q8IVF5; [2]): below the threshold

KSGKQTMLVV [TRIM29, Q14134;Q14134-2]
pKd (DFNB31_1, Q9P202; [1]): below the threshold
pKd (DLG3_2, Q92796; [1]): below the threshold
pKd (DLG4_3, P78352; [1]): below the threshold
pKd (DLG5_1, Q8TDM6; [1]): 3.93
pKd (FRMPD2_2, Q68DX3; [1]): below the threshold
pKd (GOPC, Q9HD26): below the threshold
pKd (GORASP2, Q9H8Y8; [1]): 4.6
pKd (HTRA4, P83105; [1]): 4.14
pKd (IL16_1, Q14005; [1]): below the threshold
pKd (LIMK2, P53671; [1]): below the threshold
pKd (LIN7B, Q9HAP6; [1]): below the threshold
pKd (NHERF3_1, Q5T2W1; [1]): below the threshold
pKd (NOS1, P29475; [1]): below the threshold
pKd (PARD3_3, Q8TEW0; [1]): below the threshold
pKd (PDLIM1, O00151; [1]): below the threshold
pKd (RAPGEF6, Q8TEU7; [1]): below the threshold
pKd (SCRIB_1, Q14160; [1]): below the threshold
pKd (SNTG2, Q9NY99; [1]): below the threshold
